# Source: patent US20250177548A1, “FUSOGENIC PEPTIDE COMPOSITIONS AND METHODS OF CARGO DELIVERY” (CLEMSON UNIVERSITY, priority 2022, published 2025)
# Non-standard residues stand in square brackets, D forms with d. Primed or numbered codes have the meaning given here. No end group written: not given here. pG″ = pyro form of the N-terminal glycine (pyroglycine); pG = not defined here
# T1: luteinizing hormone releasing hormone (LHRH) receptor (UniProt P30968 1-328, limits assumed)
# T1 sequence (looked up): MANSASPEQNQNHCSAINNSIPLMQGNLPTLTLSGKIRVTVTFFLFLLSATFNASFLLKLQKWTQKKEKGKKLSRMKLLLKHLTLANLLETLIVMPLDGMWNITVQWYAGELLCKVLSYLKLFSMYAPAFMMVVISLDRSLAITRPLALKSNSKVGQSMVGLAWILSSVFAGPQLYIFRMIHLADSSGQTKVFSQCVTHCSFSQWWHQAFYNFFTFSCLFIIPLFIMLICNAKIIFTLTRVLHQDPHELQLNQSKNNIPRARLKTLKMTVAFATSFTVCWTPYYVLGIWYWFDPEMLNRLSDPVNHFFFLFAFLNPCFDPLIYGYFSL
# Tests used:
# RNase A = assay: gel assay of siRNA protection from RNase A degradation; assay type: in vitro ADME; conditions: 1 hour, several N:P ratios
# Protocol: (§1) Gel Shift Assays. DIVA3, DIV3H, and DIV3W (all three denoted as DIV3 (X)) peptides suspended in RNase-free water (10 μM), were thawed, and kept on ice prior to complexation with 10 μM of negative control siGENOME non-targeting siRNA #5 (siNT, GE Healthcare Dharmacon, Lafayette, CO) in RNase-free water and incubated for 20 minutes at room temperature to allow the formation of DIV3 (X)-siNT complexes. Various molar ratios of peptides were complexed with siNT at increasing N:P molar ratios to determine the minimum molar ratio necessary to completely complex free siRNAs using an electrophoretic mobility shift assay. To determine the ability of each peptide variant to protect siRNAs from degradation, DIV3 (X)-siNT complexes or siNT alone was left untreated or incubated with either 50% v/v FBS or 5 μg/mL RNase A at 37° C. for one hour. Next, complexes were dissociated using 6% sodium dodecyl sulfate (SDS). Samples were added to a 2% agarose gel and run at 100 V. Gels were stained with ethidium bromide, destained with Milli-Q water, and imaged using a ChemiDoc XRS imager (Bio-Rad, Hercules, CA).
# (§2) Characterization of Nanoparticle Size and Stability. To determine the minimum molar ratio necessary to completely complex free siRNAs, increasing N:P molar ratios of LHRH, DIV3W, and LHRH-DIV3W peptide were complexed with siRNAs and electrophoresed using a electrophoretic mobility shift assay. Molar ratios, shown as N:P, are representations of the molar amine peptide content in relation to 1 mole of phosphate group siRNA content. To determine the ability of the peptides to protect siRNAs from serum- or RNase-mediated degradation, LHRH and LHRH-DIV3W complexes were formed in RNase-free water with siNT at increasing N:P molar ratios and incubated at 37° C., 5% CO2, 50% v/v FBS, 5 μg/mL RNase A, or 50% v/v RNase free water for 1 hour. Peptide/siRNA complexes were dissociated using 6% sodium dodecyl sulfate (SDS) prior to electrophoresis in a 2% agarose gel run at 100 V. Gels were stained with ethidium bromide, washed with Milli-Q water, and imaged with a BioRad ChemiDoc XRS imager (BioRad, Hercules, CA).
# (§3) Peptides VA-LD and GF-LD, comprising the cleavable linker VA or GLFG, respectively, between the LHRH target sequence and the DIV3W peptide, and non targeting siRNA were electrostatically complexed at increasing N:P ratios then subjected to agarose gel electrophoresis to determine optimal siRNA binding for each peptide. […] Peptide-siRNA nanocomplexes at increasing N:P ratios for peptides for VA-LD (FIG. 30A) and GF-LD (FIG. 30C) were incubated in either Rnase A enzyme or in 50% fetal bovine serum (FBS) for 1 h, dissociated using SDS then subjected to gel electrophoresis to visualize siRNA bands. Gels showing increasing N:P ratios of peptide:siRNA for VA-LD (FIG. 30B) and GF-LD (FIG. 30D) from 20:1 to 80:1 N:P; white bands are indicative of intact siRNA
# OVCAR3 cells [1] = assay: cellular uptake of labeled siRNA by flow cytometry; assay type: cell-based; conditions: for uptake efficiency: OVCAR3, siNT-DY547, 4 hours; for uptake efficiency, tandem vs LHRH peptide: FIG. 10E, 4 hr, cell line not stated
# Protocol: Cellular Uptake. OVCAR3 and CAOV3 cells were prepared at 50,000 cells per well in a 24-well plate. […] Post-incubation, media was aspirated and cells were washed with 1× PBS. To counterstain the nuclei, SuperSignal NucBlue Hoechst stain (Thermo Fisher, Waltham, MA) was added to the cells for 30 minutes, followed by an additional 1×PBS wash. Subsequent imaging was performed using an EVOS FL Microscope (Thermo Fisher) at 10× magnification. For flow cytometric analysis, cells were detached, resuspended in 1× PBS, and analyzed using an Attune NXT Acoustic flow cytometer (Invitrogen, Carlsbad, CA) with the blue laser line and BL2 (574/26 nm) channel.
# Cellular Uptake and Targeting Specificity. Observation of cell uptake was performed by seeding OVCAR3 and CAOV3 cells at a density of 50,000 cells per well in a 24-well plate. LHRH and LHRH-DIV3W peptides were complexed with […] as previously described and delivered to cells at 20:1 to 80:1 N:P ratios. Each cell line was incubated with tandem peptide complexes for both 4- and 24-hour treatment periods. Following incubation, cell media was removed, and cells were washed with 1× PBS prior to the addition of 500 μL of 1×PBS and SuperSignal NucBlue Hoescht 33342 nuclear stain (Thermo Fisher, Waltham, MA). Cellular imaging was completed using an EVOS FL Microscope (Thermo Fisher) at 10×, 20×, and 40× magnification. Flow cytometry was completed after cell imaging and cells were trypsinized, resuspended in 1×PBS, and analyzed with an Attune NXT Acoustic Flow Cytometer (Invitrogen) with the red laser line and RL2 […] channel.
# [2] = gel assay of siRNA protection from degradation in 50% serum; assay type: in vitro ADME; conditions: 50% FBS, 1 hour, several N:P ratios
# Protocol: as §1, §2, §3
# CSNK2A1 mRNA = assay: qPCR of CSNK2A1 mRNA in OVCAR3 cells; assay type: cell-based; conditions: OVCAR3, 48 hours
# Protocol: qRT-PCR. Cells were seeded at 50,000 cells per well and treated with siRNA targeting CSNK2A1 (siCSNK2A1 #s3638, Thermo Fisher Scientific) at increasing N:P ratios and incubated for a total of 48 hours in McCoys 5A/DMEM-10% FBS. Treated cells were washed with 1×PBS at 24 hours and fresh media was added. RNAisolation was completed using a Qiagen Mini-RNeasy Kit (Qiagen, Hilden, Germany) according to the manufacturer's protocol. RNA isolation quality and quantity were measured through the Gen5 protocol using a Take3 plate (BioTek). RNA was reverse-transcribed using the QuantiTect Reverse Transcription kit (Qiagen). Quantitative real-time PCR was completed with a QuantStudio 3 qPCR system (Applied Biosystems) using Applied Biosystems TaqMan FAST Master Mix (Thermo Fisher) and CSNK2A1 (ID #Hs00751002_s1) and 18S (ID #Hs99999901_s1) predesigned TaqMan probes, according to the manufacturer's protocol.
# Gene and Protein Knockdown. Bioactivity of siRNAs was determined via qPCR and western blot analysis. OVCAR3 or CAOV3 cells were seeded at 50,000 cells per well as previously described and treated with siRNA targeting CSNK2A1 and siNT at N:P ratios 30:1, 40:1, 50:1, 60:1, and 70:1. LHRH-DIV3W peptide complexed with either siNT or siCSNK2A1 was incubated for a total of 48 hours in RPMI 1640/DMEM-10% FBS, with one media exchange occurring after the 24-hour timepoint. Treated cells were washed with 1×PBS at 24 hours and fresh media was added. RNA isolation was completed using a Qiagen Mini-RNeasy Kit (Qiagen, Hilden, Germany) according to the manufacturer's protocol. RNA isolation quality and quantity was measured through the Gen5 protocol using a Take3 plate (BioTek). RNA was reverse transcribed using the QuantiTect Reverse Transcription kit (Qiagen) according to the manufacturer's protocol. Quantitative real-time PCR was completed with a QuantStudio 3 qPCR system (Applied Biosystems, Waltham, MA) using Applied Biosystems TaqMan FAST Master Mix (Thermo Fisher) and CSNK2A1 (ID #Hs00751002_s1) and 18S (ID #Hs99999901_s1) predesigned TaqMan probes according to the manufacturer's protocol.
# [3] = dynamic light scattering, size and zeta potential of peptide/siRNA complexes; assay type: physicochemical; conditions: for zeta potential: DIV3 (X) peptide/siRNA complexes
# Protocol: Dynamic Light Scattering and Transmission Electron Microscopy. DIV3 (X)-siNT complexes were prepared at 2 mg/mL in RNase-free water. Hydrodynamic size and surface charge of the peptide/siRNA complexes were determined using a Nano ZS Zetasizer (Malvern Pananalytical, Malvern, UK). All data were recorded using Malvern's Zetasizer software.
# To determine nanoparticle size and zeta potential, peptides resuspended in RNase-free water (10 μM) were thawed and kept on ice prior to complexation with 10 μM of siNT in RNase-free water and incubated for 20 minutes at room temperature to form DIV3W-siNT and LHRH-DIV3W-siNT complexes. Peptide complexes were prepared at 2 mg/mL in RNase-free water. Hydrodynamic size and surface charge analysis was conducted using a Malvern Nano ZS Zetasizer (Malvern Panalytical, Malvern, UK). All data was analyzed using Malvern's Zetasizer software.
# ES2 ovarian cancer cells [4] = assay: cellular uptake of cy5 siRNA, microscopy and flow cytometry; assay type: cell-based, human; conditions: ES2, 4 hours, N:P ratios of 20:1-40:1
# Protocol: Peptides, VA-LD and GF-LD, and cy5 labeled non targeting siRNA were electrostatically complexed at increasing N:P ratios and delivered to human ovarian ES2 cells for 4 hours.
# ES2 ovarian cancer cells [5] = test system: ES2 ovarian cancer cells
# Protocol: VA-LD and GF-LD peptides were electrostatically complexed with and non targeting siRNA at increasing N:P ratios. Complexes were delivered to human ovarian ES2 cells for 48 hours and analyzed via MTS assay.
# OVCAR3 cells [6] = test system: OVCAR3 cells
# Protocol: (§4) Cells were seeded at 10,000 cells per well with complete culture media in a 96-well plate and incubated overnight to allow the cells to attach. DIV3 (X) peptides were complexed with siNT at 40:1 to 80:1 N:P molar ratios. DIV3 (X)-siNT complexes were incubated with OVCAR3 or CAOV3 cells at a final concentration of 100 nM siRNA and 10% FBS for 24 hours. Media was then aspirated, cells were washed with 1× phosphate-buffered saline (PBS), and fresh media with 10% FBS was added to each well and incubated another 24 hours.
# Viability was measured using an MTS Assay performed with CellTiter 96 AQueous One Solution Cell Proliferation Assay (Promega, Madison, WI). Assay reagent was added according to the manufacturer's protocol, and cells were incubated for 4 hours. Absorbance was read using a BioTek Synergy LX (BioTek, Winooksi, VT) plate reader at 490 nm. An MTS cell viability assay was also conducted as described for OVCAR3 and CAOV3 cells treated with DIV3W-siRNA complexes.
# OVCAR3 or CAOV3 cells were seeded at 10,000 cells per well with complete culture media in a transparent 96-well plate and incubated overnight to allow the cells to attach. LHRH and LHRH-DIV3W peptides were delivered to cells without siRNA cargo. After 24 hours of incubation the media was exchanged and after another 24-hour incubation at 37° C. in 5% CO2, viability was measured using an MTS Assay performed with the CellTiter 96 AQueous One Solution Assay (Promega, Madison, WI). Assay reagent was added according to the manufacturer's protocol and cells were incubated for 4 hours. Absorbance was read using a BioTek Synergy LX (BioTek, Winooksi, VT) plate reader at 490 nm.
# [7] = target: T1, luteinizing hormone releasing hormone …; assay: cell-based or functional assay
# Protocol for CAOV3 cells: as §4
# Viability was measured using an MTS Assay performed with CellTiter 96 AQueous One Solution Cell Proliferation Assay (Promega, Madison, WI). Assay reagent was added according to the manufacturer's protocol, and cells were incubated for 4 hours. Absorbance was read using a BioTek Synergy LX (BioTek, Winooksi, VT) plate reader at 490 nm. […]
# OVCAR3 or CAOV3 cells were seeded at 10,000 cells per well with complete culture media in a transparent 96-well plate and incubated overnight to allow the cells to attach. […] After 24 hours of incubation the media was exchanged and after another 24-hour incubation at 37° C. in 5% CO2, viability was measured using an MTS Assay performed with the CellTiter 96 AQueous One Solution Assay (Promega, Madison, WI). […] Absorbance was read using a BioTek Synergy LX (BioTek, Winooksi, VT) plate reader at 490 nm.
molecule,measurement,setting,value
WEADIVADIVADIVAGGG-(d) RRRRRRRRR (WEADIVADIVADIVAGGG[dR][dR][dR][dR][dR][dR][dR][dR][dR]) [DIVA3],intact siRNA after incubation with RNase A,RNase A,Reduction of intact siRNA signal
same,uptake efficiency,OVCAR3 cells [1]; 80:1,63.6%
same,intact siRNA after incubation in 50% serum,[2],Reduction of intact siRNA signal
same,CSNK2A1 mRNA silencing (knockdown),"CSNK2A1 mRNA; 60:1, vs siNT complex",47%
same,zeta potential,[3],~20 mV
WEADIVADIVHDIVADIVAGGG-(d) RRRRRRRRR (WEADIVADIVHDIVADIVAGGG[dR][dR][dR][dR][dR][dR][dR][dR][dR]) [DIV3H],uptake efficiency,OVCAR3 cells [1]; 80:1,52.1%
same,intact siRNA after incubation in 50% serum,[2],Reduction of intact siRNA signal
same,CSNK2A1 mRNA silencing (knockdown),"CSNK2A1 mRNA; 80:1, vs siNT complex",72%
same,hydrodynamic diameter,[3]; DIV3 (X) peptide/siRNA complex at 60:1 ratio,around 100 nm
same,zeta potential,[3],~30 mV
pGHWSY-LLRPGGGVAWEADIVADIVWDIVADIVAGGG-RRRRRRRRR ([pG]HWSY[dL]LRPGGGVAWEADIVADIVWDIVADIVAGGG[dR][dR][dR][dR][dR][dR][dR][dR][dR]; reading uncertain) [VA-LD],intact siRNA after incubation with RNase A,RNase A,protect siRNA in physiologically relevant environments
same,delivery of cy5 siRNA,ES2 ovarian cancer cells [4],deliver siRNA to ES2 ovarian cancer cells
same,intact siRNA after incubation in 50% serum,[2],protect siRNA in physiologically relevant environments
same,biocompatibility of peptide/non-targeting siRNA complexes,ES2 ovarian cancer cells [5],biocompatible
"pGHWSY-(d) L-LRP ([pG]HWSY[dL]LRP; reading uncertain) [LHRH, reference compound]","uptake efficiency, tandem vs LHRH peptide",OVCAR3 cells [1]; 40:1,34.3%±0.56%
same,"uptake efficiency, tandem vs LHRH peptide",OVCAR3 cells [1]; 60:1,34.83%±2.75%
same,"uptake efficiency, tandem vs LHRH peptide",OVCAR3 cells [1]; 80:1,33.87%±1.63%
same,cytotoxicity of peptide alone,CAOV3 cells,biocompatibility
same,cytotoxicity of peptide alone,OVCAR3 cells [6],biocompatibility
pGHWSY-LLRPGGGGFLGWEADIVADIVWDIVADIVAGGG-RRRRRRRRR ([pG]HWSY[dL]LRPGGGGFLGWEADIVADIVWDIVADIVAGGG[dR][dR][dR][dR][dR][dR][dR][dR][dR]; reading uncertain) [GF-LD],intact siRNA after incubation with RNase A,RNase A,protect siRNA in physiologically relevant environments
same,delivery of cy5 siRNA,ES2 ovarian cancer cells [4],deliver siRNA to ES2 ovarian cancer cells
same,intact siRNA after incubation in 50% serum,[2],protect siRNA in physiologically relevant environments
same,biocompatibility of peptide/non-targeting siRNA complexes,ES2 ovarian cancer cells [5],biocompatible
[pG″]HWSY[dL]LRPGGGGGWEADIVADIVWDIVADIVAGGG[dR][dR][dR][dR][dR][dR][dR][dR][dR] [LHRH-DIV3W tandem peptide],"cell viability (MTS), OVCAR3 cells, peptide without siRNA at the 20:1 ratio",[7],110%
